# Measurements published in patent US20180155413A1 (AstraZeneca / MedImmune, published 2018).
# Read-outs that look alike come from different tables or passages of the source.
# B1: GL20 IgG (antibody, V domains shown)
# VH: QVQLQQSGPGLVKPSQTLSLTCAISGDSVSSYNAVWNWIRQSPSRGLEWLGRTYYRSGWYNDYAESVKSRITINPDTSKNQFSLQLNSVTPEDTAVYYCARSGHITVFGVNVDAFDMWGQGTMVTVSS
# VL: DIQMTQSPSSLSASVGDRVTITCRTSQSLSSYTHWYQQKPGKAPKLLIYAASSRGSGVPSRFSGSGSGTDFTLTISSLQPEDFATYYCQQSRTFGQGTKVEIK
# B2: GL20/39 BiS4 100/44 (bispecific antibody)
# light: DIQMTQSPSSLSASVGDRVTITCRTSQSLSSYTHWYQQKPGKAPKLLIYAASSRGSGVPSRFSGSGSGTDFTLTISSLQPEDFATYYCQQSRTFGQGTKVEIKRTVAAPSVFIFPPSDEQLKSGTASVVCLLNNFYPREAKVQWKVDNALQSGNSQESVTEQDSKDSTYSLSSTLTLSKADYEKHKVYACEVTHQGLSSPVTKSFNRGEC
# heavy: not shown
# Experiments:
# Experiment in all cases: cell-based or functional assay
# [1] = molecular target: HA of ca A/mallard/Alberta/89/85 (H6N2) (influenza A virus)
# [2] = molecular target: HA of A/Shenzhen/227/95 (H1N1) (influenza A virus)
# [3] = molecular target: HA of A/Solomon Island/3/2006 (H1N1) (influenza A virus)
# [4] = molecular target: HA of ca A/New Caledonia/20/99 (H1N1) (influenza A virus)
# [5] = molecular target: HA of ca A/Panama/2007/99 (H3N2) (influenza A virus)
# [6] = molecular target: HA of A/Hong Kong/8/68 (H3N2) (influenza A virus)
# [7] = molecular target: HA of A/Washington/24/2012 (H1N1) (influenza A virus)
# [8] = molecular target: HA of A/New Hampshire/04/2010 (H1N1) (influenza A virus)
# [9] = molecular target: HA of ca A/Brit. Columbia/CN-6/04 (H7N3-LP) (influenza A virus)
# [10] = molecular target: HA of A/Minnesota/11/2010 (H3N2v) (influenza A virus)
# [11] = molecular target: HA of ca A/Sydney/5/97 (H3N2) (influenza A virus)
# [12] = molecular target: HA of ca A/Japan/57 (H2N2) (influenza A virus)
# [13] = molecular target: HA of ca A/Wuhan/359/95 (H3N2) (influenza A virus)
# [14] = molecular target: HA of ca A/Perth/16/2009 (H3N2) (influenza A virus)
# [15] = molecular target: HA of ca A/South Dakota/6/2007 (H1N1) (influenza A virus)
# [16] = molecular target: HA of A/Beijing/262/95 (H1N1) (influenza A virus)
# [17] = molecular target: HA of A/Palau/6759/2014 (H3N2) (influenza A virus)
# [18] = molecular target: HA of A/Wisconsin/67/2005 (H3N2) (influenza A virus)
# [19] = molecular target: HA of A/Berlin/93/2011 (H3N2) (influenza A virus)
# [20] = molecular target: HA of A/Switzerland/9715293/2013 (H3N2) (influenza A virus)
# [21] = molecular target: HA of A/California/07/2009 (H1N1) (influenza A virus)
# [22] = molecular target: HA of A/New Caledonia/71/2014 (H3N2) (influenza A virus)
# [23] = molecular target: HA of A/Victoria/3/75 (H3N2) (influenza A virus)
# [24] = molecular target: HA of A/Puerto Rico/8/34 (H1N1) (influenza A virus, UniProt P03452 18-565)
# Sequence of HA of A/Puerto Rico/8/34 (H1N1) (P03452 18-565 limits assumed): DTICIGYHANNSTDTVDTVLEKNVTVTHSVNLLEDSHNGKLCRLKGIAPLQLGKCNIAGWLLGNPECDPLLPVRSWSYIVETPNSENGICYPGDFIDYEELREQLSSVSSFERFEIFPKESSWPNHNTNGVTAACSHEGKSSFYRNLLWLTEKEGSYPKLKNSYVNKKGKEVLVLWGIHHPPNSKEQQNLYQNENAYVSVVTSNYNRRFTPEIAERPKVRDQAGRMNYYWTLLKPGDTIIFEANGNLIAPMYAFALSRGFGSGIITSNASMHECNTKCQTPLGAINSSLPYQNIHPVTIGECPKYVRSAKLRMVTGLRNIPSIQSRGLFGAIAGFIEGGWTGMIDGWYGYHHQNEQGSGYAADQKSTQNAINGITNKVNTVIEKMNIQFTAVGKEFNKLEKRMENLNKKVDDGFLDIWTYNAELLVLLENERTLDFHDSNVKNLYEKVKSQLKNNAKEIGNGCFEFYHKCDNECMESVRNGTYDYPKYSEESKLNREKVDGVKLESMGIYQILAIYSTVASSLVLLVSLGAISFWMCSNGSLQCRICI
# [25] = molecular target: HA of A/Shan dong/9/93 (H3N2) (influenza A virus)
# [26] = molecular target: HA of A/Fort Monmouth/1/47 (H1N1) (influenza A virus)
# [27] = molecular target: HA of A/Wilson Smith N/33 (H1N1) (influenza A virus, UniProt P03454 18-565)
# Sequence of HA of A/Wilson Smith N/33 (H1N1) (P03454 18-565 limits assumed): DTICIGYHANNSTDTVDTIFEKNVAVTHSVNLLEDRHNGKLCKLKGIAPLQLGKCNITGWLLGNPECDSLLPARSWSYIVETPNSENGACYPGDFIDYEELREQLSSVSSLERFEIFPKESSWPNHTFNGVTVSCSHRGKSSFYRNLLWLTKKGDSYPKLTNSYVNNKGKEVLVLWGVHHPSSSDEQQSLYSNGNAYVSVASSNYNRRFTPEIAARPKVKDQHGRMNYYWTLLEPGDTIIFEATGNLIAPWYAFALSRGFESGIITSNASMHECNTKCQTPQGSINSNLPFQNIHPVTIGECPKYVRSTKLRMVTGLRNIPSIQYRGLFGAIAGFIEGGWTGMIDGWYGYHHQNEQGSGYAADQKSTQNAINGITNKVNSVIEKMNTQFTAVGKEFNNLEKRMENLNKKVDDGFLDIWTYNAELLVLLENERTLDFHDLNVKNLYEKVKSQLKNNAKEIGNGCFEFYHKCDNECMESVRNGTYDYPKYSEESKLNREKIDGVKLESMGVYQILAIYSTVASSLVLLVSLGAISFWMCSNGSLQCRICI
# [28] = molecular target: HA of A/Solomon Island/3/2006 (H1N1) (influenza A virus); remark: listed apart in the source
# [29] = molecular target: HA of ca A/Panama/2007/99 (H3N2) (influenza A virus); remark: listed apart in the source
# [30] = molecular target: HA of A/Hong Kong/8/68 (H3N2) (influenza A virus); remark: listed apart in the source
# [31] = molecular target: HA of B/Hong Kong/330/2001 (victoria) (influenza B virus)
# [32] = molecular target: HA of B/Malaysia/2506/2004 (victoria) (influenza B virus)
# [33] = molecular target: HA of A/Beijing/262/95 (H1N1) (influenza A virus); remark: listed apart in the source
# [34] = molecular target: HA of ca B/Beijing/243/97 (victoria) (influenza B virus)
# [35] = molecular target: HA of B/Ohio/1/2005 (victoria) (influenza B virus)
# [36] = molecular target: HA of B/Florida/4/2006 (yamagata) (influenza B virus)
# [37] = molecular target: HA of B/Sichuan/379/99 (yamagata) (influenza B virus)
# [38] = molecular target: HA of A/California/07/2009 (H1N1) (influenza A virus); remark: listed apart in the source
# [39] = molecular target: HA of A/Victoria/3/75 (H3N2) (influenza A virus); remark: listed apart in the source
# [40] = molecular target: HA of B/Yamanashi/166/98 (yamagata) (influenza B virus)
# [41] = molecular target: HA of A/Shan dong/9/93 (H3N2) (influenza A virus); remark: listed apart in the source
binder,measurement,setting,value
B1,Neutralization (IC50),[1],4.8 nM
same,Neutralization (IC50),[2],9.3 nM
same,Neutralization (IC50),[3],4.3 nM
same,Neutralization (IC50),[4],4.2 nM
same,Neutralization (IC50),[5],44.2 nM
same,Neutralization (IC50),[6],3 nM
same,Neutralization (IC50),[7],1.4 nM
same,Neutralization (IC50),[8],0.4 nM
same,Neutralization (IC50),[9],7.4 nM
same,Neutralization (IC50),[10],11.1 nM
same,Neutralization (IC50),[11],32.1 nM
same,Neutralization (IC50),[12],5 nM
same,Neutralization (IC50),[13],16.3 nM
same,Neutralization (IC50),[14],4.2 nM
same,Neutralization (IC50),[15],10.8 nM
same,Neutralization (IC50),[16],10.8 nM
same,Neutralization (IC50),[17],6.8 nM
same,Neutralization (IC50),[18],10.7 nM
same,Neutralization (IC50),[19],1.1 nM
same,Neutralization (IC50),[20],0.3 nM
same,Neutralization (IC50),[21],10.2 nM
same,Neutralization (IC50),[22],1 nM
same,Neutralization (IC50),[23],3 nM
same,Neutralization (IC50),[24],10 nM
same,Neutralization (IC50),[25],21.8 nM
same,Neutralization (IC50),[26],6.1 nM
same,Neutralization (IC50),[27],13 nM
same,Neutralization (IC50),[28],4.4 nM
same,Neutralization (IC50),[29],46.9 nM
same,Neutralization (IC50),[30],7 nM
same,Neutralization (IC50),[31],> 1000 nM
same,Neutralization (IC50),[32],> 1000 nM
same,Neutralization (IC50),[33],8.3 nM
same,Neutralization (IC50),[34],> 1000 nM
same,Neutralization (IC50),[35],> 1000 nM
same,Neutralization (IC50),[36],> 1000 nM
same,Neutralization (IC50),[37],> 1000 nM
same,Neutralization (IC50),[38],18.6 nM
same,Neutralization (IC50),[39],12.9 nM
same,Neutralization (IC50),[40],> 1000 nM
same,Neutralization (IC50),[41],19.2 nM
B2,Neutralization (IC50),[1],6.5 nM
same,Neutralization (IC50),[2],7.9 nM
same,Neutralization (IC50),[3],4.4 nM
same,Neutralization (IC50),[4],6.2 nM
same,Neutralization (IC50),[5],28.5 nM
same,Neutralization (IC50),[6],3.3 nM
same,Neutralization (IC50),[7],2.1 nM
same,Neutralization (IC50),[8],0.4 nM
same,Neutralization (IC50),[9],18.3 nM
same,Neutralization (IC50),[10],17.1 nM
same,Neutralization (IC50),[11],22.6 nM
same,Neutralization (IC50),[12],5.3 nM
same,Neutralization (IC50),[13],16.7 nM
same,Neutralization (IC50),[14],4 nM
same,Neutralization (IC50),[15],6.8 nM
same,Neutralization (IC50),[16],10.6 nM
same,Neutralization (IC50),[17],4.6 nM
same,Neutralization (IC50),[18],10.3 nM
same,Neutralization (IC50),[19],1.1 nM
same,Neutralization (IC50),[20],0.9 nM
same,Neutralization (IC50),[21],10.9 nM
same,Neutralization (IC50),[22],0.8 nM
same,Neutralization (IC50),[23],5.2 nM
same,Neutralization (IC50),[24],18.6 nM
same,Neutralization (IC50),[25],18.3 nM
same,Neutralization (IC50),[26],5.2 nM
same,Neutralization (IC50),[27],16.3 nM
same,Neutralization (IC50),[28],4.7 nM
same,Neutralization (IC50),[29],37.3 nM
same,Neutralization (IC50),[30],6 nM
same,Neutralization (IC50),[31],75.8 nM
same,Neutralization (IC50),[32],25.8 nM
same,Neutralization (IC50),[33],11.9 nM
same,Neutralization (IC50),[34],44.3 nM
same,Neutralization (IC50),[35],16.5 nM
same,Neutralization (IC50),[36],3.6 nM
same,Neutralization (IC50),[37],7.8 nM
same,Neutralization (IC50),[38],20.6 nM
same,Neutralization (IC50),[39],15.9 nM
same,Neutralization (IC50),[40],1.2 nM
same,Neutralization (IC50),[41],30.3 nM
